The source of these data is the NTF2 design screens of Basanta et al. (2020).

The data set is described as follows: protease stability score; higher = more stable; yeast display proteolysis, trypsin and chymotrypsin.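 Also: log10 excess protease needed over predicted unfolded state with 0 meaning unfolded.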
In turn, “DHQESAHRLHNTLKTIWSENDPDKYSELIDENVHVDVGDKKFRGRDEAKKLAEHIMRRADHIEIRLTSIDVHGNTIRIVVELNFNHDGTSSSVTVVVVLENHNGNFRVKKIRES” returned a protease stability score of 0.017.

In turn, “DHQVVRSFMDVLETGDWDKLKDLVDPNAKMFYGNKDLTGRDAQTHFSEVMKRRVDEIKIDSYDMKGDSAWADFVLVFNGVEIRFILRVQFHNGNVISMRFEVTDPKQKTQLDRAAS” had a protease stability score of 0.714.

The sequence “DHRAEEAFRRWEEALKTGDPDQAKEQVDPNARFEYGDESIRGMDNVQKWLRTQMEKQRIDVKVKDVKTRPGHVEISAHVVWEHNGTPNSATFVQQNTATGDDVKHVKVQEHK” returned a protease stability score of -0.27.

Sequence “DHRAFELAKNILEAIRTNDPDTVKHQLDKNATLRYGEFEVHGREDASRFVETLIRKMRVEFDIKDYHVHGDSAVMDADVKVERNGRPDTRKLNVNVNVHNGKMSHIVFELRG” registered a protease stability score of 0.693.

Turning to “DHRAIHLVRENLDARRHNDSKKAREMADKDATFHIGDRFIHGMDSFVKTLTDENREMRIEIERMSYNDRPGRVEVKQDVRENHNGSPKRFTYHAEMHVQGDHVRTQTEHRTD”, the protease stability score is -0.281.

Turning to “DHRALSQVEQFMNALQQGDEKRLMELADPNVKIIIGDKDVHGREEWDRQVHKRRHEIQYEVRRVKMHVNGDTVHVKIRAVATINGKPFEVEYTANFKIDNGHITHIDWQLPDEYLKRVKS”, the protease stability score was 0.062.

“DHRAVEVIKEMFKALQTGDERRIVEMADKDATATVGDKRVHGMKEAAHDIATEFNEMRFQLSIKRVQHSGNNVKADVEATFHHNGKPRKVQVVIVLRLHNGKVQEMSIRNDG” yielded a protease stability score of 1.17.

Regarding “DHRQQVRDIFKEMQDARRKGNEKTLQKLVDPNAKAEYGDKTYHGRENVAKMLLDEAKRVDHFEVHIKTFSIKNGTARVHADVVVKHDGQKRSTDVFYVFRDHNGQMLLVRARTQ”, the protease stability score came to 1.38.

With “DHRVEEVFRRYLEAFQDNNPEKAMRLVDPNAKLSVGDTTLDGREDIKKFVRTRHNEQRVKYEIKQIEVDGDKIRVVADLKNQHNGTPDRDTVKMSASVRNGKIKDLKQTTDK”, the protease stability score was -0.132.

As for “DHSDAEQVHRAIEENNFDELVDLADENVSVTIGDYTLHGREDFKHYQEVLKRQVDNVEFKTIDIQGDKIDRTVEATVNGRRYVARIVVKVKNGKIKSQKVHATDEKQNEQLRENLK”, the protease stability score is -0.043.

In turn, “DHSEVTDVFRKLVKVLRTGDESTAAELFDEDVEFEIGDKTYKGREEAHDLLRQFQDMADHVQLNDVRVQGNKVHAEFRADVNGRELHFTQSAEVHNGKIKKVVIRFTNEEQYREIHS” had a protease stability score of 1.59.

For “DHSKHLTNVIKRMQRLFKHGNFSEVAKQADKDVEVRVGDKTYNGRDQYVDSQRKIEHQVDNADLKFQHVDNQGDKIDVIYEFVVVHNGRHEKTTEQAVLSLHNGRVRATKIHDS”, the protease stability score is -0.102.

In turn, “DHSQLEIVIEWVKALQEGDPDKAKKNMDKNVKLDIGDKRLEGRDEVRKEMETMKKSARFDLHIDSYNVHGDHAELRVTFRNDHNGRPKKDRNTIRATAHNGRITYLSVEHTG” gave a protease stability score of 0.708.

The sequence “DHTAARIAKEIMENQDKGDEDRLRKLLDKDVRLKYGDKEIHGREHAARTLKRERRQIRIDRRIRHVEIQGDEVSIEFDMHVQHNGKPRDRKAVMVFRMQGDKLEEMTQDNTK” came in with a protease stability score of 0.191.

Regarding “DHTADRIIRNLMDALNQNDEDKAVKLMDENVRFRIGDKEYQGRERWKKLLQDWNKHASIRYTVDSMDRRGEKVHVKFELKVNINGNPVTVRVTVEFEIRNGKIKSAVYEMDPDDAKEVWS”, the protease stability score was determined as 0.925.

As for “DHTELETLARRMVDAMRTGDPDKLAELADPNVKVTYGDKSVHGHEQFTKQMKEFVDQYDHVRVERLKIEGDKVHADLNAEHNGRSSRFIMLITVKNGRVKHLKFKNR”, the protease stability score was 0.472.

“DHTEVKKQNEQVRKALTQGDPKTMKKMFDPNVKLQVGEKSYRGHKDLQKWAEEMHKRVDHARVDSVHARGNHVTVDVVFNINGREKRLTLRVSYHNGRINEVHMTDG” registered a protease stability score of 0.745.

“DHTIDEVFKQFETAKNDNDPDQLKKNADPNVDYTVGDQFVEGREHAADDIRRRREQQRNEIRSLRHSVQGNDIDVSVDMEVEHNGKPSDFTQRIDVVAHNGKIKHQTAHQEG”: the protease stability score is -0.505.

Regarding “DHTKEARQVRRFVHALETGDPDRAASQLDKNAKVTVGDKRVHGRENVRTLMQEFIREADHFRLRDMRDDGEKFNLLIEFEVNGKRLRMHIDIVISNGTMKVVRFDPNVVKRMEN”, the protease stability score was found to be 0.144.

Sequence “DHTKIARRLMEDLTDARRHNDPHHVKNLLDKDVKIRVGDKSVDGEEEATKQMIERQRRADHIEMRIKSVSTHNGQLRIIFDVREVHNGQEHTDREEVQFDNENGKVRMVNVQQK” gave a protease stability score of -0.056.

On to “DHTKQAETVARQMLEQLRDGNPEELKNMFDENVEADIGDTRYHGRESMVEFWQTILTRVDRNRLHIVDVQVQGNKIIVRVRVSFDRNGRQKEEEYVIVVRVNNGHYTADVVSLT”, for which the protease stability score stood at 0.772.

In turn, “DHTVLEKAATALKQGDTDKMNKLADENVKMKVGDKEFHGRQQVNTALKRIKEQVDHRSIRSIENRGNRVTIDANVVVNGKHVDVNFILVVHNGRLKMFQIRVTDPQVHRRLSEIMS” registered a protease stability score of 0.722.

With “DKDAAQLFHQYLEAKKHNNEDQLRENMDPNVQWTIGDKVITGREEAAKRMVDENREQRVEISHMQVHDNNGHAVFRADVRYKHNGKPSRSRFVVRVQARNGKIHSVKVERHS”, the protease stability score amounted to 0.076.

In turn, “DKDAARRFNEMLQQIHTGNEQEVSKLVDEDADVKVGEKDVHGREQIHSEVKKMRDELSYRVQVNEFDDRGDKIRFNIRVRKNTNGKPKTSRNNLTVVVHNGRIKEVKAESDG” displayed a protease stability score of 0.095.

As to “DKDAARRVQEMIRQQQTGNPTEVEEQADKDVEFKVGDKVVHGRRELKKEVETHKRESRLEVQKIEIKDHGDKAKLIIYFRVHENGEPRKRTVQVRAKYQNGKVKMIEVDSTK”, the protease stability score is -0.006.

As to “DKDALRVFERFLEAVETNDPKQVQEQADPNAHFDIGDRTYHGMDEIATKMFEEQEKIHLSVQIRDVKDHGDKAVIKAEFSSERNGKPHSKTVRIEVQAHNGQMVKLVMTDDQ”, the protease stability score was -0.309.

Turning to “DKDAQKKATEFLTAWEQGNESQLQKLMDPNAKVEIGDKVIDGREDWNRWIRERLKRMRFEIKSVDVQVHGDNVDINIDARVNHNGKPDRMTAKFVMRVHNGRIKSMTQHNDK”, the protease stability score worked out at 1.29.

Sequence “DKDAVKRFEELLRALDTNNSEQVKDLLDKNVQFRVGDKVIHGMEEAVRRQIQHNNEIRVEKEIKSIDDHNGRIHVDMTREWEHNGQPRSEKVKFTIEMHNGRVQVDNQKVTS” displayed a protease stability score of -0.098.

Sequence “DKDDFKEAEHILRTGDPDEWSKMVDPNARAEVGDEEIHGKEEFDRWMQKKKKRVDHEQVKSVDFHGDKWRVVLVFNVNGRQADVVMVMQVHNGRLVYQVVRFRDHQVKDVVRKRLS” yielded a protease stability score of 0.336.

In turn, “DKDDLRRMHQLVTRNNPQKFKQQADKDAKVQYGDKTVTGMTDAARQMVKFWRQADHIEVKHVDVNGDKLNVVMRMNVNGRNLHMVVYYVVSNGHVRSASVTFTDPHQQEEFEKNAS” displayed a protease stability score of 0.316.

Take “DKDDQKRFTDTATKILQHNNPEKMRELADKDARLVVGDRTYTGRRQIVRHMEHLFRRVDHVQIKHVDVRGDHVEIDAVLDYNGRKERMTFVFQAHNGRIKQVEVQTG”: the protease stability score worked out at 0.603.

For the sequence “DKDERHRIAHRLNEAIRTGDPHQMLRLADKNVKVQIGEKDVRGKDAIDKYARDLRKKVDHIQLRSLDVQGEEITMTIVFNVNGRRETVVYHVDYHNGQVKRVMVRSK”, the protease stability score came to 0.043.

In turn, “DKDLIERDKQWWTAVRHNNPDRLSENVDENASVRIGDKEVHGRKDISRLIKHLRDTMHESYKIERVNKEEGRANIQASATRDHNGRPRTARVQVIVEAHNGRIKRIQVQFNS” came in with a protease stability score of -0.336.

Take “DKDTEQHFADSMNQIIEQGNPKKAMKLADKDVQMQIGDKTYKGREEMMKQIKRFWKHVDEIRVKDVKVNDGQININVILDFNGKKVEVRIVIHVHNGKIHELRVDPKDKEQFEK”: the protease stability score came out at 1.09.

For the sequence “DKEALDEIEKAARENDWEKLAKMADPNVTATIGNYRVHGRSQFEKWARRVRQEVDHIEVKSIDVHGEKARVNYVIVFNGHNVTAQVQIEAHNGHITYMEVDYTDEDQVRHVKDMLS”, the protease stability score came to 1.6.

Sequence “DKEALRVFEKMLQAQRTGNPQEVRKQVDENARFQVGDKTIQGRERFAEDVDRQRKNMRLDYKHIDNKDHNGQAQADAKVRVNVNGRPIEHSAQFHFSAHNGKLVQLHVQMDEDVRRQIEK” registered a protease stability score of -0.233.

The sequence “DKEASDHATRIAQTNNPQKAVDKADPDVKATYGNKVYNGKNQARDVAKQFDEHFDRVEVKSVDNDGETVRADVRARFNGKTMEFTFVIVMSNGHVKMLFIDVRNPEDQEDLDRLLT” returned a protease stability score of -0.188.

In the case of “DKEAVNIATRYMKAWEQGDSDTLMKLMDEDVRVHYGDKVLEGREDVSRDLKRLLDHAQFEIKHVTNKDNGSVVIVNFHMIVNVNGEPVEVKVVVHFHMHNGRIKQIVIRIDPKQLRQIKG”, the protease stability score is 1.41.

For “DKEDAEKVMKTMMKVVEKGDPEQLMKVGSEGVEYQAGDLKAHGPEALKQVMDYLQKHGVRLEIKHAEVEGNTVRTYVEYKNGEETDTVEANADVDGGKIDRVEVEVGERAEKWLKHG”, the protease stability score was -0.57.

The sequence “DKEDVDHLERIMRKGDWDQLKDHADKDVTVVVGDRNIHGREKANNFLKRFKERVDHQEVRRLDVSGNEVVVDMVFNVNGRKIRATVVAVAHNGRLKEVVMRFTSEDDKRRATEAFD” had a protease stability score of 0.454.

In turn, “DKEDVKKRAEELAEVLQTGDPRKMRDLADKDARLSIGDKEYHGREEISKWVDHMRRDVDHFKLDDVQASGNKMRLTFVLQHNGRRSKFDLDVKYSNGRAKELRFDRK” displayed a protease stability score of 0.267.

Sequence “DKEDWTRLTNVLEDNNEHQFQDMLDKDVKIDVGDKRIHGRERAKHFLRKYEREVDEITVYSINVSGDNVKVDRVAKHNGQSVRFVMVFRAHNGKVQEMRIEFRDERQKEIWNQLEQ” returned a protease stability score of 0.231.

“DKEEAKKILDKAVKAVENGNLEELKQMGKEGVEYELIDKKAHGPEVVHKVMEKLQRHGAELEFKRVQVEGDTVHTVVDYRVGDTEMRATAEATVQGGRIDKVRIEMSEEAQKTIKHG” had a protease stability score of -0.272.

Turning to “DKEEAQKVAEQMVKAIKNGNLDELADAGDDGVDYQVGDEKKRGREDIKRHVEKLQKAGVEMEVKEVRVEGNEVETKLTYKIGNTEVTVKVTVEVEGGKINRVEVRMSEEVEKTVRHG”, the protease stability score is -0.193.

“DKEEARKVLEELIKAVESGNPKDLKKYGKDGVKYRLGDREAHGPEAVYKQFEQIHRQGVELRFEDTKVEGDKVTTRVTYRNGDETYTVQIHAEVRGGKIDRVEADLSDKAKEVVKHG” came in with a protease stability score of -0.066.

“DKEEFEKTAKTFMKVWTNGDPDQWKELMDPNARLQIGDKEWHGREEVREAITQFHDRVDHIEVKDLKVTEDHVRLIAVVRFNGREVKVTVNIHFENGRATHVENHFTDDDQLKRNLS” displayed a protease stability score of -0.084.

For the sequence “DKEELQHLIRLEEHNDWDKFARQAPPNATLQVGDRVVHGREEAVKFAEKLKKRVDHISIESIDRRGEKLQIVYTMVVDGKRVKAVVVLRASNGRAQSVVFQARDPHDQQVIKENLS”, the protease stability score was determined as 0.178.
